Results taken from patent US9382546.

System: recombinant overlapping peptides (ROP) fusion protein composed of 20 overlapping peptides covering HIV Nef (Lai) interspersed with Factor Xa sites (IEGR)

## protease Factor Xa (New England Biolabs)
  protease digestion, SDS page and mass spectrometry: the ROP protein was cut by Factor Xa into overlapping peptides (ROP peptides) as shown in the mass spectrometry
